In the supplement of paper PMC10724198:
± gives the standard deviation of the averaged measurements.

Columns and labels:
[1] = test system: Saccharomyces cerevisiae; assay: protein stability index of tFT-peptide fusion (C-terminal peptide) (PSI (0-1 scale)); higher = more stable (slower turnover)
Protocol: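 MPS profiling in S. cerevisiae of the tFT-X12 degron library: putative degron peptides plus stable controls, 12 aa, fused to the C-terminus of a sfGFP-mCherry timer. Cells are FACS-sorted into 8 mCherry/sfGFP bins and deep-sequenced. PSI runs from 0 (unstable) to 1 (stable). Backgrounds are wild type, das1Δ and doa10Δ at 30 °C, and wild type, das1Δ, cdc34-1 and cdc53-1 at 37 °C; 2-3 technical replicates each.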

[2] = test system: Saccharomyces cerevisiae; assay: as above; details: genetic background: wild type; temperature: 30 C
[3] = genetic background: cdc34-1, temperature: 37 C
[4] = genetic background: cdc53-1, temperature: 37 C
[5] = genetic background: das1 deletion, temperature: 30 C
[6] = genetic background: das1 deletion, temperature: 37 C
[7] = genetic background: doa10 deletion, temperature: 30 C
[8] = genetic background: wild type, temperature: 30 C
[9] = genetic background: wild type, temperature: 37 C
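Further: PSI is a weighted mean of sequencing reads over stability bins, variants kept only with over 10 reads, mCherry proximal and sfGFP distal, peptide attached via GGGS linker.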

| Sequence | protein stability index [1, 3] | protein stability index [1, 4] | protein stability index [1, 5] | protein stability index [1, 6] | protein stability index [1, 7] | protein stability index [1, 8] | protein stability index [1, 9] | protein stability index [2] |
| --- | --- | --- | --- | --- | --- | --- | --- | --- |
| FNLWCRQLASIE | 0.181 ± 0.034 | 0.218 ± 0.0042 | 0.276 ± 0.0061 | 0.187 ± 0.0035 | 0.29904 ± 0.00019 | 0.284 ± 0.012 | 0.178 ± 0.0067 | 0.327 ± 0.094 |
| LLSLPTTNLMAF | 0.575 ± 0.029 | 0.61058 ± 0.00044 | 0.49 ± 0.026 | 0.615 ± 0.0099 | 0.356 ± 0.02 | 0.403 ± 0.018 | 0.56467 ± 0.00055 | 0.484 ± 0.014 |
| PYSLYASSSSPL | 0.696 ± 0.045 | 0.7492 ± 0.0029 | 0.68 ± 0.023 | 0.748 ± 0.019 | 0.6716 ± 0.0016 | 0.676 ± 0.017 | 0.716 ± 0.015 | 0.727 ± 0.024 |
| VPQMLVSVCLSN | 0.301 ± 0.014 | 0.376 ± 0.045 | 0.287 ± 0.032 | 0.423 ± 0.021 | 0.219 ± 0.014 | 0.26 ± 0.029 | 0.392 ± 0.033 | 0.348 ± 0.011 |
| FPLFCRIHLLCS | 0.138 ± 0.0083 | 0.157 ± 0.0044 | 0.2 ± 0.017 | 0.275 ± 0.0037 | 0.059 ± 0.02 | 0.0768 ± 0.011 | 0.0529 ± 0.0047 | 0.107 ± 0.0096 |
| QCSVRLKEIQFS | 0.664 ± 0.032 | 0.726 ± 0.011 | 0.673 ± 0.03 | 0.72 ± 0.028 | 0.209 ± 0.023 | 0.276 ± 0.0056 | 0.481 ± 0.045 | 0.346 ± 0.1 |
| SWWISKWVGLNC | 0.705 ± 0.0095 | 0.778 ± 0.01 | 0.636 ± 0.013 | 0.7821 ± 0.0033 | 0.367 ± 0.0053 | 0.402 ± 0.043 | 0.6358 ± 0.0049 | 0.52 ± 0.034 |
| LPLVFYCFLLHS | 0.49 ± 0.026 | 0.523 ± 0.0057 | 0.394 ± 0.029 | 0.518 ± 0.0063 | 0.386 ± 0.01 | 0.376 ± 0.035 | 0.509 ± 0.015 | 0.4422 ± 0.002 |
| DVWEHLHKQHNM | 0.704 ± 0.015 | 0.765 ± 0.032 | 0.699 ± 0.024 | 0.753 ± 0.032 | 0.274 ± 0.021 | 0.348 ± 0.053 | 0.62 ± 0.032 | 0.499 ± 0.085 |
| GFPFLFILYFLC | 0.161 ± 0.03 | 0.257 ± 0.013 | 0.224 ± 0.02 | 0.385 ± 0.0061 | 0.111 ± 0.0087 | 0.0763 ± 0.036 | 0.105 ± 0.0019 | 0.158 ± 0.019 |
| CTAWWVKGVAVK | 0.622 ± 0.033 | 0.6395 ± 0.0018 | 0.443 ± 0.031 | 0.643 ± 0.023 | 0.424 ± 0.028 | 0.435 ± 0.018 | 0.624 ± 0.029 | 0.525 ± 0.049 |
| MACLRLTVYVMG | 0.0763 ± 0.013 | 0.0769 ± 0.045 | 0.135 ± 0.031 | 0.2187 ± 0.0016 | 0.088 ± 0.034 | 0.13 ± 0.026 | 0.202 ± 0.0036 | 0.283 ± 0.017 |
| FRCPHAVKLVLV | 0.384 ± 0.021 | 0.404 ± 0.016 | 0.328 ± 0.037 | 0.471 ± 0.011 | 0.1947 ± 0.0014 | 0.214 ± 0.018 | 0.33212 ± 0.00028 | 0.311 ± 0.02 |
| GGYIINRWRTKN | 0.566 ± 0.035 | 0.709 ± 0.022 | 0.622 ± 0.016 | 0.724 ± 0.052 | 0.113 ± 0.026 | 0.142 ± 0.021 | 0.273 ± 0.011 | 0.27 ± 0.052 |
| LFVVHCFLSVSS | 0.0267 ± 0.0027 | 0.0524 ± 0.033 | 0.0648 ± 0.021 | 0.165 ± 0.0062 | 0.0415 ± 0.0025 | 0.0374 ± 0.017 | 0.133 ± 0.029 | 0.109 ± 0.039 |
| GSLHWVMVFAVP | 0.604 ± 0.037 | 0.6404 ± 0.0044 | 0.491 ± 0.025 | 0.6582 ± 0.0047 | 0.493 ± 0.033 | 0.487 ± 0.016 | 0.607 ± 0.03 | 0.489 ± 0.042 |
| VLLSFVFCGWVR | 0.458 ± 0.014 | 0.4842 ± 0.0018 | 0.345 ± 0.027 | 0.516 ± 0.0096 | 0.326 ± 0.013 | 0.349 ± 0.025 | 0.4963 ± 0.0042 | 0.442 ± 0.019 |
| LIFRLCVCGVFW | 0.516 ± 0.03 | 0.549 ± 0.015 | 0.468 ± 0.044 | 0.5218 ± 0.0011 | 0.278 ± 0.017 | 0.271 ± 0.032 | 0.376 ± 0.009 | 0.4101 ± 0.00073 |
| IVSFRLDLSLAV | 0.532 ± 0.069 | 0.5949 ± 0.0024 | 0.452 ± 0.023 | 0.55891 ± 0.00017 | 0.448 ± 0.014 | 0.458 ± 0.02 | 0.5467 ± 0.0024 | 0.534 ± 0.051 |
| MFWKFVFRGFWF | 0.694 ± 0.064 | 0.739 ± 0.008 | 0.641 ± 0.034 | 0.7791 ± 0.0044 | 0.221 ± 0.0052 | 0.259 ± 0.019 | 0.4748 ± 0.0044 | 0.338 ± 0.018 |

| Sequence | protein stability index [1, 3] | protein stability index [1, 4] | protein stability index [1, 5] | protein stability index [1, 6] | protein stability index [1, 7] | protein stability index [1, 8] | protein stability index [1, 9] | protein stability index [2] |
| --- | --- | --- | --- | --- | --- | --- | --- | --- |
| VVLVLLCIGRLL | 0.367 ± 0.012 | 0.511 ± 0.026 | 0.305 ± 0.033 | 0.5545 ± 0.0033 | 0.27 ± 0.0062 | 0.3 ± 0.026 | 0.475 ± 0.011 | 0.376 ± 0.0063 |
| FCDFLFVFPLFS | 0.562 ± 0.016 | 0.596 ± 0.013 | 0.507 ± 0.019 | 0.6583 ± 0.0028 | 0.589 ± 0.011 | 0.479 ± 0.024 | 0.6321 ± 0.0062 | 0.515 ± 0.22 |
| RTWLHLVVPVWG | 0.213 ± 0.026 | 0.265 ± 0.044 | 0.222 ± 0.034 | 0.3778 ± 0.0024 | 0.19 ± 0.0051 | 0.228 ± 0.037 | 0.318 ± 0.014 | 0.3367 ± 0.0022 |
| FTGLCQGLWLGW | 0.691 ± 0.019 | 0.743 ± 0.014 | 0.658 ± 0.059 | 0.775 ± 0.02 | 0.684 ± 0.039 | 0.649 ± 0.013 | 0.7501 ± 0.0044 | 0.738 ± 0.025 |
| FWFLWAKMLLSC | 0.253 ± 0.015 | 0.212 ± 0.064 | 0.252 ± 0.032 | 0.377 ± 0.0081 | 0.0958 ± 0.02 | 0.109 ± 0.027 | 0.138 ± 0.023 | 0.175 ± 0.022 |
| VLLVSVFVATLL | 0.124 ± 0.013 | 0.256 ± 0.0095 | 0.143 ± 0.033 | 0.334 ± 0.0086 | 0.113 ± 0.0087 | 0.135 ± 0.022 | 0.284 ± 0.0077 | 0.21 ± 0.012 |
| RLPYSLTFFLLC | 0.414 ± 0.0067 | 0.5789 ± 0.0027 | 0.484 ± 0.038 | 0.576 ± 0.0034 | 0.07289 ± 0.00032 | 0.0628 ± 0.018 | 0.0714 ± 0.0077 | 0.134 ± 0.009 |
| KLRMGRYIVRII | 0.6637 ± 0.0034 | 0.661 ± 0.041 | 0.569 ± 0.022 | 0.6655 ± 0.0023 | 0.152 ± 0.024 | 0.135 ± 0.019 | 0.242 ± 0.012 | 0.259 ± 0.0076 |
| LLLVSLAVPLSL | 0.524 ± 0.013 | 0.569 ± 0.014 | 0.465 ± 0.017 | 0.559 ± 0.021 | 0.451 ± 0.03 | 0.459 ± 0.02 | 0.539 ± 0.0084 | 0.509 ± 0.022 |
| CFVICVCLCFGR | 0.229 ± 0.044 | 0.3626 ± 0.002 | 0.232 ± 0.018 | 0.416 ± 0.015 | 0.206 ± 0.0033 | 0.21 ± 0.026 | 0.371 ± 0.0092 | 0.35 ± 0.025 |
| VFVLFCAFVRAL | 0.212 ± 0.025 | 0.413 ± 0.032 | 0.286 ± 0.036 | 0.482 ± 0.014 | 0.0841 ± 0.013 | 0.0907 ± 0.0079 | 0.096736 ± 8.4e-05 | 0.2111 ± 0.00022 |
| LLVYLYFFFSCS | 0.309 ± 0.041 | 0.442 ± 0.045 | 0.292 ± 0.021 | 0.484 ± 0.005 | 0.2414 ± 0.0016 | 0.263 ± 0.011 | 0.42 ± 0.027 | 0.374 ± 0.022 |
| IFPSRSLLAASA | 0.403 ± 0.013 | 0.457 ± 0.062 | 0.339 ± 0.033 | 0.5192 ± 0.0019 | 0.317 ± 0.016 | 0.339 ± 0.025 | 0.48 ± 0.028 | 0.446 ± 0.0097 |
| GRVAIFTLLWRI | 0.199 ± 0.066 | 0.105 ± 0.041 | 0.256 ± 0.063 | 0.362 ± 0.01 | 0.469 ± 0.052 | 0.252 ± 0.032 | 0.29 ± 0.012 | 0.314 ± 0.12 |
| GGTGGAGSRGQI | 0.641 ± 0.069 | 0.741 ± 0.01 | 0.6181 ± 0.0046 | 0.724 ± 0.02 | 0.644 ± 0.0041 | 0.657 ± 0.011 | 0.7316 ± 0.007 | 0.499 ± 0.099 |
| IVFGWGVEWGRL | 0.757 ± 0.038 | 0.803 ± 0.027 | 0.692 ± 0.014 | 0.7973 ± 0.0035 | 0.691 ± 0.038 | 0.701 ± 0.021 | 0.783 ± 0.017 | 0.69 ± 0.28 |
| VLVVWLGICFGY | 0.166 ± 0.014 | 0.201 ± 0.046 | 0.191 ± 0.033 | 0.37 ± 0.0092 | 0.187 ± 0.0077 | 0.201 ± 0.016 | 0.299 ± 0.0044 | 0.259 ± 0.011 |
| PRHVLWLRRLLF | 0.68 ± 0.052 | 0.7289 ± 0.0067 | 0.622 ± 0.02 | 0.782 ± 0.029 | 0.2 ± 0.016 | 0.235 ± 0.024 | 0.5371 ± 0.0031 | 0.334 ± 0.0067 |
| VCLVFVVRPCIR | 0.549 ± 0.021 | 0.578 ± 0.023 | 0.436 ± 0.033 | 0.606 ± 0.022 | 0.401 ± 0.0078 | 0.414 ± 0.023 | 0.599 ± 0.0089 | 0.4904 ± 0.0027 |
